# Results: patent publication US20120149104A1 (ALLERGAN, published 2012)
# Columns and labels:
# [1] = target: T1, SNAP-25 peptide comprising amino acids 134-197 of SEQ ID NO: 5 (human); test: SPR (BIAcore 3000), peptide on CM5 chip, antibody in flow
# [2] = target: T1, SNAP-25 peptide comprising amino acids …; test: as above; remark: listed apart in the source
# [3] = target: SNAP-25 peptide comprising amino acids 134-206 of SEQ ID NO: 5 (human); test: as above
# [4] = target: T2, SNAP-25206 uncleaved substrate (in PC12 cells) (UniProt P60881 1-206); test: cell-based assay, Western blot of PC12 cells +/- GFP-BoNT/A-LC, ascites 1:100
# T2 construct: domain: SNAP-25206 uncleaved substrate; also called uncleaved SNAP-25
# T2 sequence (P60881 whole entry): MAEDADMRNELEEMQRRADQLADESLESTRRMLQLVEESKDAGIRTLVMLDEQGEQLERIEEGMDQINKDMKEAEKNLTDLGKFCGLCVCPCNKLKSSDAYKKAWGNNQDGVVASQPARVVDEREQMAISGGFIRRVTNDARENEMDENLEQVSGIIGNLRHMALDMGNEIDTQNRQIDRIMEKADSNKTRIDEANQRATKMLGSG
# [5] = target: T1, SNAP-25 peptide comprising amino acids …; test: SPR (BIAcore 3000), peptide on CM5 chip, antibody in flow; value in parentheses, second determination not explained
# [6] = target: T1, SNAP-25 peptide comprising amino acids …; test: SPR (BIAcore 3000), peptide on CM5 chip, antibody in flow; value in parentheses, second determination not explained; value in parentheses (second set for 2E2A6; KD 0.405 nM, used in paragraph 239)
Binder,fold difference of the equilibrium disassociation constant against MC-6050 and MC-6053 [1] [fold],Kd [2] [nM],koff [2] [s⁻¹],kon [2] [M⁻¹ s⁻¹],binding result [3],binding result [4],fold difference of the off rate/dissociation constant against MC-6050 and MC-6053 [1] [fold],Kd [5] [nM],koff [5] [s⁻¹],kon [6] [M⁻¹ s⁻¹]
"α-SNAP-25 monoclonal antibody 1D3B8 (antibody, V domains shown) VH: QVKLQESGAELVKPGASVKISCKASGYIFTDHALHWVRQKPEQGLEWIGYIFPGNGNIEYNEKFKGKATLTADKSSSTAYMQLNSLTSGDSAMYFCKKMDYWGQGTTVTVSS VL: DVLMTQTPLSLPVSLGDQASISCRSSQSIVHSNGNTYLEWYLQKPGQSPKLLIYKVSNRFSGVPDRFSGSGSGTDFTLKISRVEAEDLGVYYCFQGSHVPPTFGAGTKLELKR",~10,0.05,5.78e-05,1.06e+06,no binding (tested: 125 nM),no binding,,,,
"α-SNAP-25 monoclonal antibody 2E2A6 (antibody, V domains shown) VH: QVQLQQSDAELVKPGASVKISCRASGYTFTDHSIHWVKQQPGQGLEWIGYIFPGNGNIEYNDKFKGKATLTADKSSGTAYMQLNSLTSEDSAVYFCKRMGYWGQGTSVTVSS VL: DVLMTQTPLTLSVTIGQPASISCKSSQSLLYTNGKTYLTWLFQRPGQSPKRLIYLVSELDSGVPDRFSGSGSGTDFTLEITRVEAEDLGVYYCLQSAHFPFTFGSGTKLEIKR",,0.09,0.000153,1.7e+06,no binding (tested: 10 µM),no binding,≥ 1,0.405,6.74e-05,166000
"α-SNAP-25 monoclonal antibody 3C1A5 (antibody, V domains shown) VH: QVKLQESGAELVKPGASVKISCKASGYTFTDHSIHWVKQKPGQGLEWIGYLFPGNGNFEYNEKFKGKATLTADKSSSTVYMYLNSLTSEDSAVYFCKRMGYWGQGTTVTVSS VL: DVVMTQTPLTLSVTIGQPASISCKSSQSLLNTNGKTYLTWLIQRPGQSPQRLIYLVSKLDSGVPDRFSGSGSGTDFTLKISRVEAEDLGVYYCLQSSHFPFTFGSGTKLEIKR",,1.33,0.000288,217000,no binding (tested: 100 nM),no binding,,,,
"α-SNAP-25 monoclonal antibody 2C9B10 (antibody, V domains shown) VH: QVKLQESGAELVKPGASVKISCKASGYTFTDHSIHWVKQKPGQGLEWIGYLFPGNGNFEYNEKFKGKATLTADKSSSTAYMHLNSLTSEDSAVYFCKKMDYWGQGTTVTVSS VL: DIQMTQSPASLSASVGETVTITCRTTENIYSYFVWSQQRQGKSPQLRVYNAKSLAEGVPSSFNVSVSGTQFSLKINSLQPEDFGTYHCQHHYGTPYTFGGGTRLEIRR",,27.1,0.000311,11500,,no binding,,,,
